We go through 20 compounds from patent US6649593B1, “Modulators of SREBP processing” (priority 1999, dated 2003).

The target of one data set is T1, purified S1P(187-983) (Cricetulus griseus, UniProt Q9Z2A8).
T1 construct: 1.5-5 μg of purified S1P(187-983); made in house; host or cells: SRD-12B cells (CHO-derived) stably transfected with pCMV-S1P(983)-Myc-His (TR-3117, 'S1P(983) cells'); The protein was secreted into serum-free medium and purified on Ni-NTA agarose
T1 sequence (Q9Z2A8 187-983): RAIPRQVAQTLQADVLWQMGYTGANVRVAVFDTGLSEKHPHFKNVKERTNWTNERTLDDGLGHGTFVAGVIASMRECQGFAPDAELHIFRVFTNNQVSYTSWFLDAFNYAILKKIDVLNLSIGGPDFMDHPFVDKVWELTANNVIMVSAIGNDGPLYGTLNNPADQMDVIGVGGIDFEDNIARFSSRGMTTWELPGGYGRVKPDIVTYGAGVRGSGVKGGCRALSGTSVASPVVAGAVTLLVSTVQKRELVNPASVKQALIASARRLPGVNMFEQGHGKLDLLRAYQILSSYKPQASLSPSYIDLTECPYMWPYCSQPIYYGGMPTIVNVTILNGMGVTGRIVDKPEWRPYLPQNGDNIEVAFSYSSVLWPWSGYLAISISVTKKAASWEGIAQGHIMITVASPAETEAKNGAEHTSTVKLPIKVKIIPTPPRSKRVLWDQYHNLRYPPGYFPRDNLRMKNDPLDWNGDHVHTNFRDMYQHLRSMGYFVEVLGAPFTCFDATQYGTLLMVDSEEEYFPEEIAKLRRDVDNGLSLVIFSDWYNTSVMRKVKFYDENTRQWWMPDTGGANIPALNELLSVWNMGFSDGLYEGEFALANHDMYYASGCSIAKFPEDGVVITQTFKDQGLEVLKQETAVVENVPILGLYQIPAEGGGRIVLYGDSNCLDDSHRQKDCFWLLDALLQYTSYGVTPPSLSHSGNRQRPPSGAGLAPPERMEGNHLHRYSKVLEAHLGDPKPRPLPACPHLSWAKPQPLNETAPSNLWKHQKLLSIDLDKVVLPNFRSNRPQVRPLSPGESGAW
The format is biochemical, hamster. Particulars: for inhibition of S1P at extremely high concentrations: extremely high concentrations of inhibitor; for Relative Activity (comparative cleavage of fluorogenic synthetic peptidyl substrates): cleavage by purified S1P-C(187-983), MCA-peptide 100 μM, pH 8.0, 37° C. How it is done: Stock cultures of S1P(983) cells were grown in 850-cm^2 roller bottles in medium B supplemented with 5% (v/v) newborn calf lipoprotein-deficient serum and 500 μg/mL G418. On day 0, 10 roller bottles of S1P(983) cells were seeded at a density of ˜4×10^7 cells/roller bottles. On day 2, the medium was replaced with 100 mL of serum-free medium CHO-S-SFMII. The medium from each roller bottle was collected daily from day 3 to day 7. The collected medium was pooled, filtered through 0.45-μm cellulose acetate low-protein binding membrane filter units (Corning Costar) and stored at 4° C. for 0 to 4 days. On day 7, the filtered medium was adjusted to pH 8.0 by addition of tris-HCl at a final concentration of 25 mM, and then loaded onto four parallel 5-mL Ni-NTA agarose columns (Qiagen, Inc., Chatsworth, Calif.) equilibrated with 20 mL of buffer B (25 mM tris-HCl at pH 8.0, 10% (v/v) glycerol, 1 mM CaCl2). The chromatography was performed at 4° C. via gravity at ˜100 mL/hr. The column was washed with 40 mL of buffer B supplemented with 1M NaCl followed by 20 mL of buffer B without NaCl. […] The eluate was concentrated with a Centriprep 30 filter followed by a Centricon 30 filter (Amicon, Inc.).
S1P activity was measured fluorometrically with MCA-conjugated peptidyl substrates. Each reaction was carried out in 0.2 mL of assay buffer (25 mM tris, 25 mM Mes, 25 mM acetic acid, and 1 mM CaCl2 adjusted to pH 8.0 with concentrated NaOH). Reactions contained MCA-peptide (final concentration 100 μM, added in 2 μl DMSO) and 1.5-5 μg of purified S1P(187-983). After incubation for 0.5-5 h at 37° C., each reaction was terminated by addition of 1 mL of ice-cold 5 mM sodium EDTA. The liberated 7-amino-4-methylcoumarin (AMC) was measured with a Perkin-Elmer LS-30 luminescence spectrometer (360 nm excitation, 460 nm emission). A standard curve of fluorescence intensity was generated with different concentrations of AMC (Promega).

The next data set deals with T2, Ac-Arg-Ser-Leu-Lys-MCA.
T2 sequence: XSLX

Another data set has as its system T3, Ac-Arg-Ser-Val-Leu-MCA.
T3 sequence: XSVX

Data set [1] deals with T4, Ac-Ser-Gly-Arg-Ser-Val-Leu-MCA.
T4 sequence: XGRSVX

The subject of data set [2] is T5, Ac-Ser-Gly-Ser-Gly-Arg-Ser-Val-Leu-MCA.
T5 sequence: XGSGRSVX

In data set [3] the test system is T6, Ac-Val-Phe-Ala-Ser-Leu-Lys-MCA.
T6 sequence: XFASLX

Data set [4] relates to T7, Ac-Val-Phe-Arg-Ser-Arg-Arg-MCA.
T7 sequence: XFRSRX

The test system of data set [5] is T8, Ac-Val-Phe-Arg-Ser-Leu-Lys-MCA.
T8 sequence: XFRSLX

The subject of a further data set is T9, Boc-Arg-Val-Arg-Arg-MCA.
T9 sequence: XVRX

[6] abbreviates: incubated with substrate Ac-VFRSLK-MCA.

Read-outs that look alike come from different tables or passages of the source. Non-standard residues stand in square brackets, D forms with d. Residues, ends and D or L forms follow the SMILES beside them. *: point of attachment. Sta = CC(C)C[C@H](N)[C@@H](O)CC(=O)O; Isovaleryl = CC(C)CC(=O)*

On to `O[C@H](CS)[C@H](O)CS` (racemic) [dithiothreitol], for which, on purified S1P(187-983) (setting [6]), the “inhibition of S1P at extremely high concentrations” value is reported as “also inhibited S1P”.

On to `c1cnc2c(c1)ccc1cccnc12` [1,10-phenanthroline], for which the “inhibition of S1P at extremely high concentrations” value at purified S1P(187-983) (setting [6]) was “also inhibited S1P”.

As to `N=C(N)c1ccc(CS(=O)(=O)F)cc1` [APMSF, (4-amindinophenyl)-methanesulfonyl fluoride], the “inhibition of S1P” value against purified S1P(187-983) (setting [6]) was “not significantly inhibited”.

Regarding `O=C(O)CN(CCN(CC(=O)O)CC(=O)O)CC(=O)O` [EDTA], the “inhibition of S1P” value against purified S1P(187-983) is “partially inhibited”.

With `O=C(O)CN(CCOCCOCCN(CC(=O)O)CC(=O)O)CC(=O)O` [EGTA], the “inhibition of S1P at extremely high concentrations” value against purified S1P(187-983) (setting [6]) is listed as “also inhibited S1P”.

For the compound `O=S(=O)(F)Cc1ccccc1` [PMSF, phenylmethylsulfonyl fluoride], the “inhibition of S1P” value against purified S1P(187-983) (setting [6]) is recorded as “not significantly inhibited”.

Consider `Cl.NCCc1ccc(S(=O)(=O)F)cc1` [Pefabloc®], for which, on purified S1P(187-983) (incubated with substrate Ac-VFRSLK-MCA, high concentrations of inhibitor), the “inhibition of S1P at high concentrations” value was “did inhibit S1P”.

Take `CC(=O)N[C@@H](CC(C)C)C(=O)N[C@@H](CC(C)C)C(=O)N[C@H](C=O)CCCNC(=N)N` [leupeptin]: the “inhibition of S1P” value against purified S1P(187-983) (setting [6]) is recorded as “resistant”.

Consider `CC(C)CC(=O)N[C@H](C(=O)N[C@H](C(=O)N[C@@H](CC(C)C)[C@@H](O)CC(=O)N[C@@H](C)C(=O)N[C@@H](CC(C)C)[C@@H](O)CC(=O)O)C(C)C)C(C)C` [pepstatin] (Isovaleryl-VV[Sta]A[Sta]-OH), for which the “inhibition of S1P” value against purified S1P(187-983) (setting [6]) is on record as “resistant”.

For the compound “Ac-Arg-Ser-Leu-Lys-MCA [Ac-RSLK-MCA, fluorogenic MCA-conjugated peptidyl substrate]”, the “Relative Activity (comparative cleavage of fluorogenic synthetic peptidyl substrates)” value with purified S1P(187-983) is 0.47.

On to “Ac-Arg-Ser-Val-Leu-MCA [Ac-RSVL-MCA, fluorogenic MCA-conjugated peptidyl substrate]”, for which the “Relative Activity (comparative cleavage of fluorogenic synthetic peptidyl substrates)” value with purified S1P(187-983) is on record as less than 0.1.

Take “Ac-Ser-Gly-Arg-Ser-Val-Leu-MCA [Ac-SGRSVL-MCA, fluorogenic MCA-conjugated peptidyl substrate]”: the “Relative Activity (comparative cleavage of fluorogenic synthetic peptidyl substrates)” value in the data set with purified S1P(187-983) was less than 0.1.

As for “Ac-Ser-Gly-Ser-Gly-Arg-Ser-Val-Leu-MCA [Ac-SGSGRSVL-MCA, fluorogenic MCA-conjugated peptidyl substrate]”, the “Relative Activity (comparative cleavage of fluorogenic synthetic peptidyl substrates)” value in the data set with purified S1P(187-983) is reported as less than 0.1.

“Ac-Val-Phe-Ala-Ser-Leu-Lys-MCA [Ac-VFASLK-MCA, fluorogenic MCA-conjugated peptidyl substrate]”: the “Relative Activity (comparative cleavage of fluorogenic synthetic peptidyl substrates)” value in the data set with purified S1P(187-983) is less than 0.1.

“Ac-Val-Phe-Arg-Ser-Arg-Arg-MCA [Ac-VFRSRR-MCA, fluorogenic MCA-conjugated peptidyl substrate]”: in the data set with purified S1P(187-983), the “Relative Activity (comparative cleavage of fluorogenic synthetic peptidyl substrates)” value is less than 0.1.

Turning to “Ac-Val-Phe-Arg-Ser-Leu-Lys-MCA [Ac-VFRSLK-MCA, fluorogenic MCA-conjugated peptidyl substrate]”, in the data set with purified S1P(187-983), the “Relative Activity (comparative cleavage of fluorogenic synthetic peptidyl substrates)” value was 1.0.

For the compound “Boc-Arg-Val-Arg-Arg-MCA [Boc-RVRR-MCA, fluorogenic MCA-conjugated peptidyl substrate]”, the “Relative Activity (comparative cleavage of fluorogenic synthetic peptidyl substrates)” value with purified S1P(187-983) is on record as less than 0.1.

As for “N-acetyl-leucinal-leucinal-norleucinal [ALLN]”, the “inhibition of S1P” value against purified S1P(187-983) (setting [6]) is recorded as “resistant”.

Consider aprotinin, for which the “inhibition of S1P” value against purified S1P(187-983) (setting [6]) is listed as “resistant”.

For the compound “purified S1P(187-983), secreted form from S1P(983)-Myc-His cells (hamster Site-1 protease)”, the Relative Activity (cleavage of fluorogenic MCA substrate, release of AMC) (relative activity) in the data set with Ac-Arg-Ser-Leu-Lys-MCA was 0.47; in the data set with Ac-Arg-Ser-Val-Leu-MCA it was less than 0.1; in data set [1], less than 0.1; in [2], less than 0.1; in data set [3], less than 0.1; in data set [4], less than 0.1. For the same compound, the Relative Activity (cleavage of fluorogenic MCA substrate, release of AMC) (relative activity) in data set [5] is 1; with Boc-Arg-Val-Arg-Arg-MCA, less than 0.1.
